Values quoted from earlier work as cited in patent US12714740B2, “Compositions comprising a tweak ligand and methods of using same” (Children's Hospital Medical Center, priority 2019, dated 2026).

Target: T1, Fn14 (Homo sapiens, UniProt Q9NP84)
T1 sequence (Q9NP84 28-129): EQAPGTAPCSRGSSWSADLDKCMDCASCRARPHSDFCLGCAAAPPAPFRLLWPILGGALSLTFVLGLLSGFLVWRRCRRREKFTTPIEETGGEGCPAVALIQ
Conditions: natural ligand binding to Fn14; high affinity; read-out: interaction affinity constant (Kd)

Kd: 0.8 to 2.4 nM
B1: TWEAK: natural ligand for Fn14; 14 kDa protein, TNF superfamily member 12 (protein, UniProt O43508 94-249, looked up)
Tumor necrosis factor ligand …: SAPKGRKTRARRAIAAHYEVHPRPGQDGAQAGVDGTVSGWEEARINSSSPLRYNRQIGEFIVTRAGLYYLYCQVHFDEGKAVYLKLDLLVDGVLALRCLEEFSATAASSLGPQLRLCQVSGLLALRPGSSLRIRTLPWAHLKAAPFLTYFGLFQVH
